Data reported in the Immune Epitope Database (IEDB).

Assays:
[1] = target: HLA-A*01:01; test: IEDB peptide-MHC binding, purified MHC/direct/fluorescence; filed as Kd, often an IC50 or EC50 that approximates it; ≥ and ≤ were set here for values at or beyond the usual limits of such assays
[2] = target: HLA-A*02:01; test: as above; settings: source organism: Burkholderia mallei
[3] = target: HLA-A*02:11; test: as above
[4] = target: HLA-A*02:12; test: as above
[5] = target: HLA-A*03:01; test: as above
[6] = target: HLA-A*11:01; test: as above; settings: source organism: Burkholderia mallei
[7] = target: HLA-A*26:01; test: as above; settings: source organism: Mycobacterium tuberculosis str. Haarlem
[8] = target: HLA-A*31:01; test: as above; settings: source organism: Burkholderia mallei
[9] = target: HLA-A*69:01; test: as above; settings: source organism: Burkholderia mallei
[10] = target: HLA-B*15:01; test: as above; settings: source organism: Burkholderia mallei
[11] = target: HLA-B*15:09; test: as above; settings: source organism: Mycobacterium tuberculosis str. Haarlem
[12] = target: HLA-B*15:17; test: as above; settings: source organism: Burkholderia mallei
[13] = target: HLA-B*18:01; test: as above; settings: source organism: Burkholderia mallei
[14] = target: HLA-B*27:05; test: as above
[15] = target: HLA-B*39:01; test: as above; settings: source organism: Mycobacterium tuberculosis str. Haarlem
[16] = target: HLA-B*40:01; test: as above; settings: source organism: Burkholderia mallei
[17] = target: HLA-B*46:01; test: as above
[18] = target: HLA-B*48:01; test: as above; settings: source organism: Burkholderia mallei
[19] = target: HLA-B*51:01; test: as above; settings: source organism: Burkholderia mallei
[20] = target: HLA-B*57:01; test: as above; settings: source organism: Burkholderia mallei
[21] = target: HLA-B*58:01; test: as above; settings: source organism: Burkholderia mallei
[22] = target: HLA-B*07:02; test: IEDB peptide-MHC binding, purified MHC/competitive/fluorescence; filed as Kd, often an IC50 or EC50 that approximates it; ≥ and ≤ were set here for values at or beyond the usual limits of such assays
[23] = target: HLA-B*35:01; test: as above
[24] = target: HLA-B*51:01; test: as above
[25] = target: HLA-C*05:01; test: IEDB peptide-MHC binding, purified MHC/direct/fluorescence; filed as Kd, often an IC50 or EC50 that approximates it; ≥ and ≤ were set here for values at or beyond the usual limits of such assays
[26] = target: HLA-B*08:01; test: IEDB peptide-MHC binding, purified MHC/competitive/fluorescence; filed as Kd, often an IC50 or EC50 that approximates it; ≥ and ≤ were set here for values at or beyond the usual limits of such assays; settings: source organism: Yersinia pestis Nepal516
[27] = target: HLA-A*02:03; test: IEDB peptide-MHC binding, purified MHC/direct/fluorescence; filed as Kd, often an IC50 or EC50 that approximates it; ≥ and ≤ were set here for values at or beyond the usual limits of such assays
[28] = target: HLA-A*02:16; test: as above
[29] = target: HLA-A*02:19; test: as above
[30] = target: HLA-A*23:01; test: as above
[31] = target: HLA-A*24:03; test: as above
[32] = target: HLA-A*29:02; test: as above
[33] = target: HLA-A*68:02; test: as above
[34] = target: HLA-A*02:01; test: IEDB peptide-MHC binding, purified MHC/competitive/fluorescence; filed as Kd, often an IC50 or EC50 that approximates it; ≥ and ≤ were set here for values at or beyond the usual limits of such assays
[35] = target: HLA-A*26:01; test: as above
[36] = target: HLA-A*69:01; test: as above; settings: source organism: Orthohantavirus puumalaense
[37] = target: HLA-B*15:01; test: as above
[38] = target: HLA-B*15:17; test: as above
[39] = target: HLA-B*18:01; test: as above
[40] = target: HLA-B*27:03; test: as above
[41] = target: HLA-B*39:01; test: as above
[42] = target: HLA-B*46:01; test: as above
[43] = target: HLA-B*57:01; test: as above
[44] = target: HLA-A*02:12; test: as above; settings: source organism: Giardia lamblia ATCC 50803
[45] = source organism: Burkholderia mallei
[46] = source organism: Mycobacterium tuberculosis str. Haarlem
[47] = source organism: Yersinia pestis Nepal516
[48] = source organism: Orthohantavirus puumalaense
[49] = source organism: Zaire ebolavirus
[50] = source organism: Influenza A virus (A/Leningrad/1954/1(H1N1))
[51] = source organism: Bacillus anthracis str. A0488
[52] = source organism: West Nile virus

Q: How did the Kd [1, 45] turn out when APAKKAAAK was run?
A: ≥ 20 µM

Q: And the Kd [2]?
A: ≥ 20 µM

Q: And the Kd [3, 46]?
A: ≥ 20 µM

Q: What about the Kd [4, 46] of the same sequence?
A: ≥ 20 µM

Q: And the Kd [5, 45]?
A: ≥ 20 µM

Q: What about the Kd [6] of the same sequence?
A: ≥ 20 µM

Q: What about the Kd [7] of the same sequence?
A: ≥ 20 µM

Q: What about the Kd [8] of the same sequence?
A: ≥ 20 µM

Q: And the Kd [9]?
A: ≥ 20 µM

Q: And the Kd [10]?
A: ≥ 20 µM

Q: What about the Kd [11] of the same sequence?
A: ≥ 20 µM

Q: And the Kd [12]?
A: ≥ 20 µM

Q: And the Kd [13]?
A: ≥ 20 µM

Q: What about the Kd [14, 45] of the same sequence?
A: ≥ 20 µM

Q: What about the Kd [15] of the same sequence?
A: ≥ 20 µM

Q: What about the Kd [16] of the same sequence?
A: ≥ 20 µM

Q: What about the Kd [17, 45] of the same sequence?
A: ≥ 20 µM

Q: And the Kd [18]?
A: ≥ 20 µM

Q: What about the Kd [19] of the same sequence?
A: ≥ 20 µM

Q: And the Kd [20]?
A: ≥ 20 µM

Q: What about the Kd [21] of the same sequence?
A: ≥ 20 µM

Q: EPLAVIASL was tested. Which Kd [22, 47] did it give?
A: ≥ 20 µM

Q: And the Kd [23, 47]?
A: 0.0017 µM

Q: What about the Kd [24, 47] of the same sequence?
A: ≥ 20 µM

Q: What does the source list for FPIKRISAV?
A: Kd [25, 47]: ≥ 20 µM; Kd [26]: 0.0512 µM; Kd [23, 47]: 0.0004 µM; Kd [24, 47]: 0.268 µM

Q: Which results are given for LRYGNVLDV?
A: Kd ([27]; source organism: Choclo virus): ≥ 20 µM; Kd ([3]; source organism: Choclo virus): ≥ 20 µM; Kd ([4]; source organism: Choclo virus): ≥ 20 µM; Kd ([28]; source organism: Choclo virus): ≥ 20 µM; Kd ([29]; source organism: Choclo virus): ≥ 20 µM; Kd ([5]; source organism: Choclo virus): ≥ 20 µM; Kd ([30]; source organism: Choclo virus): ≥ 20 µM; Kd ([31]; source organism: Choclo virus): ≥ 20 µM; Kd ([32]; source organism: Choclo virus): ≥ 20 µM; Kd ([33]; source organism: Choclo virus): ≥ 20 µM; Kd ([14]; source organism: Isla Vista hantavirus): 0.951 µM; Kd [34, 48]: ≥ 20 µM; Kd [35, 48]: ≥ 20 µM; Kd [36]: ≥ 20 µM; Kd [37, 48]: ≥ 20 µM; Kd [38, 48]: ≥ 20 µM; Kd [39, 48]: ≥ 20 µM; Kd [40, 48]: ≥ 20 µM; Kd [41, 48]: ≥ 20 µM; Kd [42, 48]: ≥ 20 µM; Kd [24, 48]: ≥ 20 µM; Kd [43, 48]: ≥ 20 µM

Q: LSDLCNFLV was tested. Which Kd ([1]; source organism: Ebola virus - Gabon (1994-1997)) did it give?
A: 0.0671 µM

Q: And the Kd [27, 49]?
A: ≥ 20 µM

Q: What about the Kd [3, 49] of the same sequence?
A: ≥ 20 µM

Q: What about the Kd [4, 49] of the same sequence?
A: ≥ 20 µM

Q: What about the Kd [28, 49] of the same sequence?
A: ≥ 20 µM

Q: And the Kd [29, 49]?
A: ≥ 20 µM

Q: What about the Kd [5, 49] of the same sequence?
A: ≥ 20 µM

Q: What about the Kd [30, 49] of the same sequence?
A: ≥ 20 µM

Q: And the Kd [31, 49]?
A: ≥ 20 µM

Q: And the Kd [32, 49]?
A: ≥ 20 µM

Q: What about the Kd [33, 49] of the same sequence?
A: ≥ 20 µM

Q: What about the Kd [25, 49] of the same sequence?
A: 0.013 µM

Q: What about the Kd [34, 49] of the same sequence?
A: ≥ 20 µM

Q: And the Kd [35, 49]?
A: ≥ 20 µM

Q: And the Kd [37, 49]?
A: ≥ 20 µM

Q: And the Kd [38, 49]?
A: ≥ 20 µM

Q: And the Kd [39, 49]?
A: ≥ 20 µM

Q: What about the Kd [40, 49] of the same sequence?
A: ≥ 20 µM

Q: What about the Kd [41, 49] of the same sequence?
A: ≥ 20 µM

Q: And the Kd [42, 49]?
A: ≥ 20 µM

Q: And the Kd [24, 49]?
A: ≥ 20 µM

Q: And the Kd [43, 49]?
A: ≥ 20 µM

Q: Which results are given for LVSLGAISF?
A: Kd [22, 50]: ≥ 20 µM; Kd [23, 50]: 0.29 µM

Q: What does the source list for MTVFSYKAF?
A: Kd [37, 51]: 0.19 µM; Kd [23, 51]: 0.154 µM

Q: With SVFQGALFA as the sequence, how does the Kd ([34]; source organism: Giardia lamblia ATCC 50803) read?
A: 1.89 µM

Q: And the Kd [44]?
A: 11 µM

Q: With TVSPSAPTY as the sequence, how does the Kd [17, 52] read?
A: ≥ 20 µM

Q: What about the Kd [23, 52] of the same sequence?
A: ≤ 0.0001 µM
